For test [1], the target named is murine TRANCE receptor (TRANCE-R) on the cell surface (murine) (UniProt O35305). Put plainly: cell-based or functional assay.
In test [2] the target is T1, murine TRANCE (mTRANCE) on the cell surface (murine, UniProt O35235 1-316).
T1 construct: also called RANK-L
T1 sequence: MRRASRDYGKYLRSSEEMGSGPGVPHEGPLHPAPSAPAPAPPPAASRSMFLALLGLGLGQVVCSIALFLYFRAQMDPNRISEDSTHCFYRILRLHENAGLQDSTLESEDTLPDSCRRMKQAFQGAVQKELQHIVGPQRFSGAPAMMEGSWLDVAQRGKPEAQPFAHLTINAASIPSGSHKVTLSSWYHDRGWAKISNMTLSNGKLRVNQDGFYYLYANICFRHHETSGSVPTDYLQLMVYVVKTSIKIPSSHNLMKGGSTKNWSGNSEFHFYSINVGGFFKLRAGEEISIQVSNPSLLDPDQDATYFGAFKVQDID
Put plainly: flow cytometry on transfected 293T cells and on activated murine T cells, TR-Fc at 5 mg/ml as printed, FITC anti-human Fc. Here is the method: Determination of the specificity of hCD8-TRANCE and TR-Fc.
Flow cytometry. The expression of TRANCE on activated CD4+ and CD8⁺ T-cells was assessed using the TR-Fc fusion protein at 5 mg/ml followed by FITC-conjugated goat anti-human IgG (Fc specific) F(ab′)₂ fragment (Jackson. Laboratories, West Grove, Pa.). The negative control consisted of normal hIgG1 (Sigma, St Louis, […].). T-cell and thymocyte subsets were sorted using a FACS “VANTAGE”, (Becton Dickinson, Mountain View, Calif.).
Background: Flow cytometry measures light scatter and fluorescence of single cells or particles in a stream.

In test [1], “FLAG-tagged soluble form of TRANCE (TRANCE-Ecto) (from UniProt O35235 72-316) (ligand)” came in with a JNK activation (fold induction over unstimulated), LNTC of 2 fold; a JNK activation (fold induction over unstimulated), T cell hybridomas of 2 fold; a JNK activation (fold induction over unstimulated), thymocytes of 3 fold.
In turn, “human CD8-TRANCE recombinant molecule (from UniProt P01732 22-182) (ligand)” returned a JNK activity in thymocytes of control littermates in test [1] of 2.5 fold.

B1: TRANCE-R-Fc recombinant molecule (Fc fusion, murine, UniProt O35305 31-214, looked up)
chain: VTPPCTQERHYEHLGRCCSRCEPGKYLSSKCTPTSDSVCLPCGPDEYLDTWNEEDKCLLHKVCDAGKALVAVDPGNHTAPRRCACTAGYHWNSDCECCRRNTECAPGFGAQHPLQLNKDTVCTPCLLGFFSDVFSSTDKCKPWTNCTLLGKLEAHQGTTESDVVCSSSMTLRRPPKEAQAYLPS
notes: extracellular domain; Made in a baculovirus system and purified on protein A sepharose; also called TR-Fc; TR.R-Fc; not shown: Fc portion of human IgG1, fused to the C-terminal end of the receptor's extracellular domain
In the case of B1, the binding result in test [2] is “binds”.

These data come from patent US20060159654A1 (ROCKEFELLER UNIVERSITY, published 2006).
